Results taken from patent publication US11370825B2, “Polypeptides, cells, and methods involving engineered CD16” (Regents of the University of Minnesota, priority 2014, dated 2022).
Numbering of substitutions follows the chain as printed. In names and notes the source's numbering stands.

Assays:
ADAM17 [1] = assay: Soluble CD16b released from transfected HEK293 cells, ELISA of media supernatant (shedding); assay type: cell-based, human
Description: (§1) FIG. 3. Effects of the engineered S197P mutation on CD16a and CD16b shedding. Transfected HEK293 (human embryonic kidney) cells separately expressed CD16b and CD16b/S197P (A) or CD16a and CD16a/S197P (B) at similar levels, as determined by flow cytometry (left panels). The different transfectants were treated with or without PMA (15 ng/ml for 30 minutes at 37° C.) and soluble levels of CD16 in the media supernatant were quantified by ELISA (right panels). Each treatment condition was repeated three times for each experiment and the data are representative of three independent experiments. Bar graphs show mean±SD. Statistical significance is indicated as ***P<0.001. (C) Transfected HEK293 cells expressed L-selectin (CD62L) or L-selectin and CD16b/S197P. Surface levels of L-selectin and CD16b/S197P on transfected and mock-transfected cells were measured using flow cytometry (histogram plots). Transfectants expressing L-selectin or L-selectin and CD16b/S197P were incubated in the presence or absence of PMA for 30 minutes at 37° C., and the mean fluorescence intensity (MFI) of L-selectin staining determined (bar graph). Each treatment condition was repeated three times for each experiment and the data are representative of two independent experiments. Bar graphs show mean±SD. Statistical significance is indicated as *P<0.05. For all histogram plots, the x-axis=Log 10 fluorescence and the y-axis=cell number.
HEK293 cells (a human embryonic kidney cell line) and NK92 cells (a human NK cell line) (ATCC, Manassas, Va.) were cultured according to the depository's instructions. HEK293 cells were transiently transfected with pcDNA3.1 with or without CD16b, CD16b/S197P, and/or L-selectin using Lipofectamine 2000 (Invitrogen, Carlsbad, Calif.) according to the manufacturer's instructions. HEK293 cells stably expressing human FcRγ were transiently transfected with pcDNA3.1 with or without CD16a or CD16a/S197P by the same approach. NK92 cells were stably transduced with pBMN-IRES-EGFP with or without CD16a or CD16a/S197P by retrovirus generation and infection procedures described previously (Matala et al., 2001, J Immunol. 167:1617-1623; Walcheck et al., 2003, J Leukoc Biol. 74:389-394; Wang et al., 2009, J Immunol. 182:2449-2457). Construct expression was assessed by EGFP fluorescence and CD16 staining, as determined by flow cytometry. Human iPSCs (UCBiPS7, derived from umbilical cord blood CD34 cells) were maintained on mouse embryonic fibroblasts (Knorr et al., 2013, Stem Cells Transl Med. 2:274-283; Ni et al., 2014, Stem Cells 32:1021-1031). Stable expression of CD16a or CD16a/S197P was performed using a Sleeping Beauty transposon system as previously described (Wilber et al., 2007, Stem Cells 25:2919-2927; Tian et al., 2009, Stem Cells 27:2675-2685). […]

ADAM17 [2] = assay: L-selectin surface down-regulation in HEK293 transfectants expressing or lacking CD16b/S197P (ADAM17 activity control); assay type: cell-based, human; conditions: HEK293 cells expressing versus lacking CD16b/S197P; PMA 30 minutes at 37° C.
Description: as §1, with “(C) Transfected HEK293 cells expressed L-selectin (CD62L) or L-selectin and CD16b/S197P.” left out, “Each treatment condition was repeated three times for each experiment and the data are representative of two independent experiments. Bar graphs show mean±SD. Statistical significance is indicated as *P<0.05.” left out
HEK293 cells (a human embryonic kidney cell line) and NK92 cells (a human NK cell line) (ATCC, Manassas, Va.) were cultured according to the depository's instructions. […] Construct expression was assessed by EGFP fluorescence and CD16 staining, as determined by flow cytometry. […]

[3] = HEK293 transfectants treated with PMA 15 ng/ml for 30 minutes at 37° C.
[4] = untreated transfected HEK293 cells

B1: CD16b: Wild-type human IgG Fc receptor CD16b (FcγRIIIb), NA1 allelic variant, recombinant comparator (protein, listed as Homo sapiens)
chain: MWQLLLPTALLLLVSAGMRTEDLPKAVVFLEPQWYRVLEKDSVTLKCQGAYSPEDNSTQWFHNENLISSQASSYFIDAATVDDSGEYRCQTNLSTLSDPVQLEVHVGWLLLQAPRWVFKEEDPIHLRCHSWKNTALHKVTYLQNGKDRKYFHHNSDFHIPKATLKDSGSYFCRGLVGSKNVSSETVNITITQGLAVSTISSFS
- soluble levels of CD16 in media supernatant (ADAM17 [1]; [3]): increased further
- soluble levels of CD16 in media supernatant (ADAM17 [1]; [4]): High levels

B2: CD16b/S197P: Human CD16b (FcγRIIIb, SEQ ID NO:2, NA1 variant) with serine-197 substituted by proline; expressed in HEK293 cells (protein, listed as Homo sapiens)
chain: B1 chain with S197P
- soluble levels of CD16 in media supernatant (ADAM17 [1]; [3]): markedly lower
- soluble levels of CD16 in media supernatant (ADAM17 [1]; [4]): markedly lower
- L-selectin down-regulation following activation with PMA (ADAM17 [2]): similarly down-regulated
